According to paper PMC9976893, “Dynamic states of eIF6 and SDS variants modulate interactions with uL14 of the 60S ribosomal subunit” (Nucleic Acids Research, 2023):

B1: uL14 peptide (aa 121-140) with S138 to A substitution (peptide)
peptide: VAKECADLWPRIASNAGAIA
notes: also called site-specific mutant peptide S138
B2: uL14 peptide (aa 121-140) with alanine substitution of N135 (peptide)
peptide: VAKECADLWPRIASAAGSIA
notes: also called site-specific mutant peptide N135
B3: uL14 peptide (aa 121-140) with alanine substitution of D127 (peptide)
peptide: VAKECAALWPRIASNAGSIA
notes: also called site-specific mutant peptide D127
B4: uL14 peptide (aa 121-140) with alanine substitution of R131 (peptide)
peptide: VAKECADLWPAIASNAGSIA
notes: also called site-specific mutant peptide R131

target: recombinant full-length human eIF6 (human, UniProt P56537 1-245); test: SPR; eIF6 immobilised on a CM5 chip by NHS/EDC chemistry (4913 RU); peptides injected at 0-500 μM (1:2 dilutions) in 20 mM HEPES pH 7.4, 150 mM NaCl, 0.01% BSA, 0.002% Tween 20; 25 μl/min; BIAcore S200; profiles did not obey a 1:1 model; settings: both partners purified

| percent reduction of binding against the uL14-WT peptide at 0.5 mM [%] | Binder |
| --- | --- |
| ~50 | B1 |
| ~50 | B2 |
| ~50 | B3 |
| ~50 | B4 |
